Test results: the RNAGym collection of RNA variant scans (doi:10.1093/molbev/msab373)

B1: Azoarcus group I ribozyme (parent)
chain: GUGCCUUGCGCCGGGAAACCACGCAAGGGAUGGUGUCAAAUUCGGCGAAACCUAAGCGCCCGCCCGGGCGUAUGGCAACGCCGAGCCAAGCUUCGGCGCCUGCGCCGAUGAAGGUGUAGAGACUAGACGGCACCCACCUAAGGCAAACGCUAUGGUGAAGGCAUAGUCCAGGGAGUGGCGAAAGUCACACAAACCGG

Variants of: B1
Test: reverse-splicing fitness (ratio to wild type); higher = more active; in vitro selection; Mg2+ level not given
Outline: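 An in vitro group I ribozyme library with randomized positions was T7-transcribed and gel-purified. In triplicate, 10 pmol RNA in EPPS pH 7.5 was reacted with 50 pmoles of a 30-nt RNA substrate for 1 h at 37 °C across several added MgCl2 levels (1–48 mM), then stopped with EDTA. Products were reverse transcribed from a substrate-complementary primer, PCR-amplified and sequenced (HiSeq 4000). Fitness is a variant's read proportion after selection over that before, normalised to wild type.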

Compared with C82U A111C A120C C150U C169U U176G, C82U A111C A120C C150U C169U U176A is higher in reverse-splicing fitness: 0.00584 for the first, 0.0178 for the second.

Compared with C82U A111C A120U A145C C150U, C82U A111C A120U A145C C150A is lower in reverse-splicing fitness: 0.00868 for the first, 0.00398 for the second.

Compared with C82U A111C A120U A145C C150G, C82U A111C A120G A145C C150A C169A U176C is higher in reverse-splicing fitness: 0.00528 for the first, 0.00587 for the second.

Compared with C82U A111C A120G A145C C150A C169A U176G, C82U A111C A120G A145C C150A C169A U176A is higher in reverse-splicing fitness: 0.00467 for the first, 0.011 for the second.

First: C82U A111C A120G A145G C150G U176C
Second: C82U A111C A120G A145G C150G U176G
The reverse-splicing fitness of the first is higher: 0.0103 for the first, 0.00607 for the second.

First: C82U A111C A120G A145G C150G U176A
Second: C82U A111C A120G A145C C169A U176G
The reverse-splicing fitness of the first is higher: 0.00693 for the first, 0.00336 for the second.

First: C82U A111C A120G A145C C169A U176C
Second: C82U A111C A120G A145C C169A U176A
The reverse-splicing fitness of the first is lower: 0.00533 for the first, 0.00788 for the second.

Going from C82U A111C A120G A145G C150A C169G U176G to C82U A111C A120G A145G C150A C169G U176C, the reverse-splicing fitness rises from 0.00493 to 0.0241.

First: C82U A111C A120G A145G C150A C169G U176A
Second: C82U A111C A120G C169G U176A
The reverse-splicing fitness of the first is lower: 0.0146 for the first, 0.0161 for the second.

First: C82U A111C A120G C169G U176G
Second: C82U A111C A120G C169G U176C
The reverse-splicing fitness of the first is lower: 0.00413 for the first, 0.0209 for the second.

Compared with C82U A111C A120G A145G C150G C169A U176A, C82U A111C A120G A145G C150G C169A U176C is lower in reverse-splicing fitness: 0.0117 for the first, 0.011 for the second.

Going from C82U A111C A120G A145G C150G C169A U176G to C82U A111C A120G A145G C150U C169A U176G, the reverse-splicing fitness falls from 0.00775 to 0.00542.

First: C82U A111C A120G A145G C150U C169A U176A
Second: C82U A111C A120G A145G C150U C169A U176C
The reverse-splicing fitness of the first is lower: 0.0136 for the first, 0.0142 for the second.

Going from C82U A111C A120G A145U C150G U176A to C82U A111C A120G A145U C150G U176C, the reverse-splicing fitness rises from 0.00768 to 0.0141.

Compared with C82U A111C A120G A145U C150G U176G, C82U A111C A120C C150U C169U is higher in reverse-splicing fitness: 0.00282 for the first, 0.0109 for the second.

Compared with C82U A111C A120C C150U C169G, C82U A111C A120C C150U C169A is higher in reverse-splicing fitness: 0.0078 for the first, 0.00816 for the second.

Going from C82U A111C A120G A145C C150U C169A to C82U A111C A120G A145C C150U C169G, the reverse-splicing fitness falls from 0.00786 to 0.00662.

First: C82U A111C A120G A145C C150U C169U
Second: C82U A111C A120G A145U C150A C169U U176C
The reverse-splicing fitness of the first is lower: 0.00593 for the first, 0.0106 for the second.

Going from C82U A111C A120G A145U C150A C169U U176G to C82U A111C A120G A145U C150A C169U U176A, the reverse-splicing fitness rises from 0.00435 to 0.0157.

First: C82U A111C A120G C169U U176G
Second: C82U A111C A120G C169U U176A
The reverse-splicing fitness of the first is lower: 0.00376 for the first, 0.0158 for the second.

Work on C82U A111C A120G C169U U176C yielded a reverse-splicing fitness of 0.0142.
